Series [1] in a line: Pharmacokinetics in mice, serum antibody by ELISA. The series is classed as in vivo. On the procedure: The pharmacokinetics of h7C3-3 and h7C3-4 were evaluated in B6 mice. B6 mice (n=6) were administered 10 mg/kg of test material (based on the antibody component) by tail vein injection. Blood samples were collected from each mouse via the saphenous vein at hour 1, 2, and 6, and at day 1, 2, 3, 4, 7, 9, 11, 14, 16, 18, 21, 23, 25, 35 and 42 post-injection, and serum samples were collected. Plasma concentrations of h7C3-3 and h7C3-4 were measured by IgG (Total) Human ELISA Kit (Invitrogen, BMS2091).
Background: In an ELISA, binding on a coated surface is turned into a signal by an enzyme label.

Series [2] can be described thus: Isoelectric point (pI). It is filed as physicochemical.
Series [3] has as its system PC-3. Briefly: In vitro cell cytotoxicity assay (CellTiter-Glo). It is filed as cell-based. How it is done:
(§1) The number of living cells were determined using the CellTiter-Glo® Luminescent Cell Viability Assay (Promega G7571). Cells were plated in 96-well opaque Costar plates (Cat number 136101). In brief, 500-2500 cells in 90 μL media were added to each well in quadruplicate and allowed to adhere for 16 hours. Anti-NTSR1 (dose range: 0-500 nM), anti-NTSR1-MMAE (dose range: 0-500 nM) or Paclitaxel (dose range: 0-100 nM) were added in […] 72-120 hours, medium was removed, and 200 μL of CellTiter-Glo® viability reagent contain culture medium (1:1) was added to each well and placed on an orbital shaker in the dark for 2 minutes. The plate was allowed to sit at RT for 10 minutes before being read on a GloMax® Explorer Multimode Microplate Reader (GM3500).
On the technique in general: Cellular ATP, detected with luciferase, serves as a proxy for viable cell number.

Series [4] deals with A549. Briefly: In vitro cell cytotoxicity assay (CellTiter-Glo). It is filed as cell-based. How it is done:
as §1

For series [5], the system named is NTSR1-expressing A549 cancer cells. Briefly: Internalization of h7C3-3 or h7C3-3-ADC in A549 cells (flow cytometry). It is filed as cell-based. The settings on record: A549, 1 μg/ml, 37° C. for 90 minutes. How it is done:
A total of 1×10^6 cells were reacted with the indicated antibody or ADC in 100 μL of FACS buffer for 60 minutes at 4° C. and washed to remove excess antibody or ADC. Cells were then transferred to 4° C. or 37° C. for 90 minutes. To determine the relative number of h7C3-3 or h7C3-3-ADC on the cell surface, cells were stained with saturating amounts of FITC (BD Pharmingen™) conjugated mouse anti-human IgG antibodies and incubated for additional 60 minutes on ice. Cells were washed again and followed by an additional incubation with 1 ml PBS containing 0.5 mg/mL propidium iodide at 4° C. for 10 minutes. Data were collected on 10,000 living cells by FACS (Bio-Red S3e cell sorter). Fluorescence intensity from channel FL-1 was calculated with Flow Jo flow cytometry analysis software. Preparation of anti-NTSR1 antibody-drug conjugates (ADCs)

In series [6] the test system is H1299 lung tumor xenograft. Briefly: H1299 lung tumor xenograft model. As to conditions: for body weight: 10 mg/kg, H1299 xenograft mice. The series is classed as in vivo, nude mice. The source says: (§2) Immuodeficient male NU/NU nude mice (for H1299 and PC-3 xenograft study) and male Fox Chase SCID® mice (for HA22T-Luc xenograft study) of 7-week-old purchased from BioLASCO were housed in sterilized cages equipped with an air filter and sterile bedding materials at the Laboratory Animal Center of the National Health Research Institutes (NHRI), which is an AAALAC International accredited facility. All mice were fed with sterilized water and chow ad libitum under 12-hour light/12-hour dark cycle throughout the study. On the day of tumor cell inoculation, the number of viable cells was counted by using a hemocytometer with trypan blue staining under a light microscope. Cells were suspended in phenol red-free medium [RPMI1640 (H1299) or DMEM (HA22T-Luc)] or PBS (PC-3) and Matrigel™ (356237, Matrigel® Matrix, Corning, MA, United States) in 1:1 ratio. H1299 (1×10^6 cells), HA22T-Luc (5×10^6 cells) and PC-3 (1×10^6 cells) were implanted subcutaneously into the left flank of either nude or SCID mice using a 1 mL syringe (needle 24G×1 inch). Tumor dimensions were measured with a digital caliper, and the tumor volume in mm^3 was calculated by the formula: Volume=(length×width^∧2)/2. Tumor-bearing mice were grouped (n=5-8 per group) and administered when the average tumor volume was approximately at 200 mm^3. In the 3 individual xenograft studies, human IgG (HU-GF-ED, Lot#120916DG, Molecular Innovations, MI, USA), h7C3-4, h7C3-3-MMAE and h7C3-4-MMAE were diluted in 1× Dulbecco's Phosphate Buffered Saline (02-023-5A, Biological Industries, CT, USA) freshly before dosing at concentration of 2.5 mg/ml. Cisplatin (KEMOPLAT, 1 mg/mL, 87200009AA, Fresenius Kabi, Bad Homburg, Germany) was purchased. In the H1299 xenograft study, tumor-bearing mice were divided into 5 groups (6 mice per group): Human IgG −10 mg/Kg group (negative control), Cisplatin—7 mg/Kg group (positive control), h7C3-3-MMAE —10 mg/Kg group, h7C3-4 −10 mg/Kg group and h7C3-4-MMAE −10 mg/Kg group. The mice were intravenously injected with 4 mL/Kg of dose volume by tail vein twice per week for 3 weeks, except for the Cisplatin group, which was once per week for 3 weeks. In the HA22T-Luc xenograft study, tumor-bearing mice were divided into 3 groups (8 mice per group): Human IgG −10 mg/Kg group (negative control), h7C3-3-MMAE −10 mg/Kg group and h7C3-4-MMAE (ADC) −10 mg/Kg group. The mice were intravenously injected with 4 mL/Kg of dose volume by tail vein twice per week for 2 weeks. In the PC-3 xenograft study, tumor-bearing mice were divided into 2 groups: no treatment group (5 mice) and h7C3-4-MMAE (ADC) −10 mg/Kg (8 mice). The mice in h7C3-4-MMAE −10 mg/Kg group were intravenously injected with 4 mL/Kg of dose volume by tail vein twice per week for 3 weeks. Each treatment was based on the body weight. Body weight and tumor size were measured twice weekly.
Nude mice were subcutaneously inoculated with NTSR1-expressing cells, H1299 (1×10^6 cells per mouse). When the tumors reached a volume of 200 mm^3, the tumor-bearing mice were grouped (n=6) and administered intravenously with human IgG (negative control), h7C3-3-MMAE, h7C3-4 and h7C3-4-MMAE, respectively, at 10 mg/Kg twice weekly for six doses. The Cisplatin (positive control) was administered intravenously at 7 mg/Kg weekly for three doses.

Series [7] concerns HA22T-Luc liver tumor xenografts. Briefly: HA22T-Luc liver tumor xenograft model. The series is classed as in vivo, SCID mice. The settings on record: for tumor volume on day 15 / tumor volume until 36 days: 10 mg/Kg i.v. twice weekly for four doses; for body weight: 10 mg/kg, HA22T-Luc xenograft mice.
Source text: as §2
To compare the anti-tumor efficacies of h7C3-3-MMAE and h7C3-4 MMAE, an experiment was performed with 5×10^6 HA22T-luc liver cancer cells inoculated subcutaneously to SCID mice. Tumor-bearing mice were divided into 3 groups (n=8). When the tumors reached a volume of 200 mm^3, 10 mg/Kg of human IgG, h7C3-3-MMAE and h7C3-4 MMAE were administered intravenously, respectively, twice weekly for four doses.

Series [8] deals with Mahlavu. Briefly: In vitro cell cytotoxicity assay (CellTiter-Glo). The series is classed as cell-based. On the procedure: as §1
Series [9] relates to HA22T. Briefly: In vitro cell cytotoxicity assay (CellTiter-Glo). It is filed as cell-based. On the procedure: as §1
Series [10] concerns HA22T-Luc. Briefly: In vitro cell cytotoxicity assay (CellTiter-Glo). The series is classed as cell-based. How it is done:
as §1

In series [11] the test system is H1299. Briefly: In vitro cell cytotoxicity assay (CellTiter-Glo). It is filed as cell-based. On the procedure: as §1
In series [12] the target is T1, NTSR1 on A549 cells (Homo sapiens, UniProt P30989).
T1 construct: endogenous in cells; host or cells: A549 (NSCLC)
Briefly: Flow cytometry (FACS) binding of anti-NTSR1 antibodies on A549 cells. The settings on record: A549 cells, one hour incubation at 4° C. On the procedure:
A total of 1×10^6 cells were reacted with an anti-NTSR1 antibody in 100 μL of FACS buffer (PBS containing 0.5% BSA) for 60 minutes at 4° C. and washed two times to remove excess antibody. Secondary FITC (BD Pharmingen™) conjugated mouse anti-human IgG antibodies were incubated for an additional 60 minutes on ice. Cells were washed again and followed by an additional incubation with 1 ml PBS containing 0.5 mg/mL propidium iodide at 4° C. for 10 minutes. Data were collected on 10,000 living cells by FACS (Bio-Red S3e cell sorter). Fluorescence intensity from channel FL-1 was calculated with Flow Jo flow […] cytometry analysis software.
On the technique in general: A flow cytometer gives signals particle by particle.

The test system of series [13] is PC3 prostate tumor xenograft. Briefly: PC3 prostate tumor xenograft model. It is filed as in vivo, nude mice.
Source text: as §2, with “The mice were intravenously injected with 4 mL/Kg of dose volume by tail vein twice per week for 3 weeks, except for the Cisplatin group, which was once per week for 3 weeks. In the HA22T-Luc xenograft study, tumor-bearing mice were divided into 3 groups (8 mice per group): Human IgG −10 mg/Kg group (negative control), h7C3-3-MMAE −10 mg/Kg group and h7C3-4-MMAE (ADC) −10 mg/Kg group. The mice were intravenously injected with 4 mL/Kg of dose volume by tail vein twice per week for 2 weeks. In the PC-3 xenograft study, tumor-bearing mice were divided into 2 groups: no treatment group (5 mice) and h7C3-4-MMAE (ADC) −10 mg/Kg (8 mice). The mice in h7C3-4-MMAE −10 mg/Kg group were intravenously injected with 4 mL/Kg of dose volume by tail vein twice per week for 3 weeks. Each treatment was based on the body weight.” left out, “weekly. […]” for “weekly.”

The mark [14] stands for this setting: 10 mg/kg i.v. twice weekly for six doses.

Residue numbers refer to the chain shown, from its start. Names and notes keep the numbering of the source. “Also recorded” adds a separate entry of the source.

The values that follow come from patent publication US12710427B2, “Anti-human neurotensin receptor 1 antibody and use thereof” (National Health Research Institutes, priority 2020, dated 2026).

T1 sequence (P30989 whole entry): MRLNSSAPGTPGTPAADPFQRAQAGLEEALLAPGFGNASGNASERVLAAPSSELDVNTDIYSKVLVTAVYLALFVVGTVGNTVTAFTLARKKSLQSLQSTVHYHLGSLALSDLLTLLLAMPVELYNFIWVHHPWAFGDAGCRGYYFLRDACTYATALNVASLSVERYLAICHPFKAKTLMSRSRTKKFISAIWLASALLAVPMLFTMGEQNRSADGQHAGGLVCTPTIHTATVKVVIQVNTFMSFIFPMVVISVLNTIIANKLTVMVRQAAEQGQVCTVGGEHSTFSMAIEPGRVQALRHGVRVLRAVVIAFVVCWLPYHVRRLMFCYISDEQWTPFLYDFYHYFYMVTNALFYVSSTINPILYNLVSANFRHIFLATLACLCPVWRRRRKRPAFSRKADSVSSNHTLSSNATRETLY

B1: h7C3-4: h7C3-3 variant with S9T and D82E in VH and K79T in VL; VH SEQ ID NO: 13, VL SEQ ID NO: 14 (antibody, V domains shown)
VH: QVQLQQPGTVLVRPGASVKLSCKASGYAFTSSWIHWAKQRPGQGLEWIGQIRPNSGNTYYNEKFKVKATLTVDTSSSTAYVELSSLTSEDSAVYYCARYHYGFDYWGQGTLVTVSS
VL: DVLMTQTPLSLPVSLGDQASISCRSSQSIVHSNGNTYLEWYLQKPGQSPKLLIYKVSNRFSGVPDRFSGSGSGTDFTLTISRVEAEDLGVYYCFQGAHLPWTFGGGTKLEIKR
modifications: VH SEQUENCE; VL SEQUENCE
In general, IC50 refers to the midpoint of a concentration-inhibition curve. Turning to B1, the “pharmacokinetics (overall)” value in series [1] (10 mg/kg) is “better pharmacokinetics”. Further, the “clearance compared with h7C3-3” value in [1] (single intravenous administration 10 mg/kg) is given as “significantly improved clearance”. The “isoelectric points (pI) compared to h7C3-3” value in series [2] is listed as “lower”. Also, the half-maximal inhibitory concentration (IC50) in [3] and in series [4] was > 500 nM in each case.

B2: h7C3-3-MMAE: h7C3-3 conjugated with MMAE via cleavable valine-citrulline linker, average 3.8-4 MMAE per antibody (conjugate)
VH: B1 VH with T9S, E82D
VL: B1 VL with T79K
modifications: non-natural residues
notes: h7C3-3 conjugated with MMAE via cleavable valine-citrulline linker, average 3.8-4 MMAE per antibody
Consider B2, for which the internalization efficiency result in series [5] is recorded as “internalized efficiently”. In series [6] (setting [14]), the “tumor growth (tumor volume) until/on day 35” value was “partial inhibition of the tumor growth”. Besides, the body weight result in series [6] and in series [7] was “did not show body weight loss” throughout. In addition, in [7], the “tumor volume on day 15” value is “tumor regression”. The “tumor volume until 36 days” value in series [7] was “prolonged regression of tumor”. For the same molecule, the concentration for half-maximal inhibition (IC50) amounted to 21.9 ± 2.04 nM in [3]; 40.9 ± 1.63 nM in series [4]; 236 ± 6.9 nM in [8]; 36.9 ± 3.04 nM in series [9]; 39.4 ± 2.87 nM in series [10]; 95.6 ± 2.02 nM in series [11]. Moreover, in series [12], the “binding on cell surface” value is given as “have binding efficiency on cell surface”.

B3: h7C3-4-MMAE: h7C3-4 conjugated with MMAE via cleavable valine-citrulline linker, average 3.8-4 MMAE per antibody (conjugate)
VH: B1 VH
VL: B1 VL
For B3, in series [6] (setting [14]), the “tumor growth (tumor volume) until/on day 35” value is on record as “Prolonged regression of tumor”. In series [6] (10 mg/kg i.v. twice weekly for six doses, vs human IgG 10 mg/kg and Cisplatin 7 mg/kg), the “tumor growth (tumor volume) on day 18” value is given as “inhibited the tumor growth more potently”. The body weight result in series [6] is reported as “did not show body weight loss”. Also, in series [7], the “tumor volume on day 15” value is listed as “tumor regression”, the “tumor volume until 36 days” value is reported as “prolonged regression of tumor” and the body weight result is reported as “did not show body weight loss”. The molecule also displayed a concentration for half-maximal inhibition (IC50) in [3] of 55.4 ± 5.17 nM. For the same molecule, the IC50 in series [4] came out at 33.5 ± 3.32 nM. Further, in series [13] (setting [14]), the antitumor efficacy result is reported as “highly efficacious” and the “tumor volume until day 60” value is listed as “prolonged regression of tumor”. Moreover, in series [13] (10 mg/kg, PC3 xenograft mice), the “body weight / general physiological conditions” value is “did not induce any abnormalities; also recorded: did not cause body weight loss”.
